Measurements taken from IntAct's records for PubMed 19448033.

Assays:
cipko_arath CIPK24 [1] = target: cipko_arath CIPK24 (UniProt Q9LDI3)
cipko_arath CIPK24 [2] = target: cipko_arath CIPK24 (UniProt Q9LDI3); remark: listed apart in the source

Chain of cipko_arath CIPK24 (Q9LDI3 whole entry): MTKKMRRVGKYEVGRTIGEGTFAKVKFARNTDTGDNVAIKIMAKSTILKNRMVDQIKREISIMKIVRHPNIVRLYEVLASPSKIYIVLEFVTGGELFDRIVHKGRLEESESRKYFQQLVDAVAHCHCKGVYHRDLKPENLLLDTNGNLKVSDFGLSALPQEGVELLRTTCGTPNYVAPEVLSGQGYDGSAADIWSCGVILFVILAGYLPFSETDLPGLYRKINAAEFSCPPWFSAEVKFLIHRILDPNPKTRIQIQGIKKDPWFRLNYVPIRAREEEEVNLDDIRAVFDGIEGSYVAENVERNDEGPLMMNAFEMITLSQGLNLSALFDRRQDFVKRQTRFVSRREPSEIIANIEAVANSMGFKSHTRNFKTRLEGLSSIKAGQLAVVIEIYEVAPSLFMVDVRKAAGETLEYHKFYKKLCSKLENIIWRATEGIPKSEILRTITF
Chain of Calcineurin B-like protein 10 (Arabidopsis thaliana (Mouse-ear cress)), Q7FRS8-2 S237A (Q7FRS8 other isoform, or with tags, fused parts or gaps S237A): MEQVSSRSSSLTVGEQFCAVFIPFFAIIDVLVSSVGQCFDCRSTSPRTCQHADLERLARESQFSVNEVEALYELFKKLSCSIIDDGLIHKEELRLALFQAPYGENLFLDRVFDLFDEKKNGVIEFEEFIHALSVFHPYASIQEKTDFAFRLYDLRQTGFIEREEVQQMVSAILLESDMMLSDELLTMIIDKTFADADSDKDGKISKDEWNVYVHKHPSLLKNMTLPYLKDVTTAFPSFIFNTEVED
Chain of Calcineurin B-like protein 10 (Arabidopsis thaliana (Mouse-ear cress)), Q7FRS8-2 S237D (Q7FRS8 other isoform, or with tags, fused parts or gaps S237D): as the sequence (Q7FRS8 other isoform, or with tags, fused parts or gaps S237A) above

effect of a mutation on the interaction (cipko_arath CIPK24 [1]) | effect of a mutation on the interaction (cipko_arath CIPK24 [2]) | Substance
decreasing interaction | disrupting interaction | Calcineurin B-like protein 10 (Arabidopsis thaliana (Mouse-ear cress)), Q7FRS8-2 S237A
increasing interaction | – | Calcineurin B-like protein 10 (Arabidopsis thaliana (Mouse-ear cress)), Q7FRS8-2 S237D
